Positions count from the first letter of the chain named. Names may count otherwise.
B1: 9xHis-SUMO-NEMO(44–111)(des3C/L107C), covalent dimer (domain or fragment, human, UniProt Q9Y6K9 44-111, looked up)
chain: {9xHis‑SUMO}-EQGAPETLQRALEENQELRDAIRQSNQILRERAEELLHFQASQREEKEFLMAKFQEARKLVERCGLEK
modifications: also: covalent dimer via interchain disulfide at Cys107
B2: 9xHis-SUMO-NEMO(44–111)(des2C/C54/L107C), covalent dimer (domain or fragment, human, UniProt Q9Y6K9 44-111, looked up)
chain: {9xHis‑SUMO}-EQGAPETLQRCLEENQELRDAIRQSNQILRERAEELLHFQASQREEKEFLMAKFQEARKLVERCGLEK
modifications: also: covalent dimer via interchain disulfides at Cys54 and Cys107
B3: 9xHis-SUMO-NEMO(1–120)(des3C/C54), oxidised covalent dimer (domain or fragment, human, UniProt Q9Y6K9 1-120, looked up)
chain: MNRHLWKSQLAEMVQPSGGPAADQDVLGEESPLGKPAMLHLPSEQGAPETLQRCLEENQELRDAIRQSNQILRERAEELLHFQASQREEKEFLMAKFQEARKLVERLGLEKLDLKRQKEQ
modifications: interchain disulfide bond at Cys54
B4: 9xHis-SUMO-NEMO(1–120)(des4C/L107C), covalent dimer (domain or fragment, human, UniProt Q9Y6K9 1-120, looked up)
chain: B3 chain with C54A, L107C
modifications: interchain disulfide bond at Cys107
B5: 9xHis-SUMO-NEMO(1–120)(des3C/C54/L107C), covalent dimer (domain or fragment, human, UniProt Q9Y6K9 1-120, looked up)
chain: B3 chain with L107C
modifications: interchain disulfide bonds at Cys54 and Cys107
B6: 9xHis-SUMO-NEMO(44–111)(des2C/C54), covalent dimer (domain or fragment, human, UniProt Q9Y6K9 44-111, looked up)
chain: {9xHis‑SUMO}-EQGAPETLQRCLEENQELRDAIRQSNQILRERAEELLHFQASQREEKEFLMAKFQEARKLVERLGLEK
modifications: also: covalent dimer via interchain disulfide at Cys54
B7: FLAG-tagged 7xAla/L107C NEMO (natural protein, human, UniProt Q9Y6K9 1-419, looked up)
chain: MNRHLWKSQLAEMVQPSGGPAADQDVLGEESPLGKPAMLHLPSEQGAPETLQRALEENQELRDAIRQSNQILRERAEELLHFQASQREEKEFLMAKFQEARKLVERCGLEKLDLKRQKEQALREVEHLKRAQQQMAEDKASVKAQVTSLLGELQESQSRLEAATKEAQALEGRARAASEQARQLESEREALQQQHSVQVDQLRMQGQSVEAALRMERQAASEEKRKLAQLQVAYHQLFQEYDNHIKSSVVGSERKRGMQLEDLKQQLQQAEEALVAKQEVIDKLKEEAEQHKIVMETVPVLKAQADIYKADFQAERQAREKLAEKKELLQEQLEQLQREYSKLKASAQESARIEDMRKRHVEVSQAPLPPAPAYLSSPLALPSQRRSPPEEPPDFCCPKCQYQAPDMDTLQIHVMECIE

Molecular target: the molecule itself
Assay: cross-linking

Stoichiometry N, 2:
B1
B2
B3
B4
B5
B6

Molecular target: the molecule itself
Assay: cross-linking
Remark: another data set of the same source

Stoichiometry N, 2:
B7
